Measurements: patent publication US20170233490A1 (Hoffmann-La Roche, published 2017)
“And” between values parts separate entries of the source, which are not always exact repeats. Equal values may be shown once.

Assays:
TtSlyD-FKBP-Her3 = biological target: T1, TtSlyD-FKBP-Her3; assay: SPR Biacore 3000, antibody captured, 25 C
T1 construct: N-terminal Met present or not; also called thermo SlyD-Her3; ttSlyD-Her3
T1 chain: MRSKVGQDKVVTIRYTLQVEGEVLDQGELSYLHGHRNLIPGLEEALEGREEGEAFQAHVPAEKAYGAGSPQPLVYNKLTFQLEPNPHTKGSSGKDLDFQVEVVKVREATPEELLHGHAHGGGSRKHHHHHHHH

[1] = biological target: T2, human HER3 Extracellular Domain (ECD) (human, UniProt P21860 20-643); assay: SPR Biacore T100, antibody captured, 25 C
T2 construct: human recombinant, 68 kDa; 'closed' conformation without ligand; also called Her3 ECD; Her-3 ECD
Method: (§1) A CM5 series sensor was mounted into the system and was normalized in HBS-ET buffer (10 mM HEPES pH 7.4, 150 mM NaCl, 3 mM EDTA, 0.005% w/v Tween 20) according to the manufacturer's instructions. The sample buffer was the system buffer supplemented with 1 mg/ml CMD (Carboxymethyldextran, Sigma #86524). The system operated at 25° C. 6500 RU RAM-Fcγ (relative units of Fcγ-fragment RamIgG, GE Healthcare) were immobilized according to the manufacturer's instructions using EDC/NHS chemistry on all four flow cells. The sensor was deactivated using 1M ethanolamine.
(§2) The binding activity of the respective antibody against the analytes was kinetically tested. Antibodies were captured at 35 nM concentration by a 1 min injection at 5 μl/min. The flow rate was set to 100 μl/min.
(§3) Analytes in solution were injected at different concentration steps of 0 nM, 1.1 nM, 3.7 nM, 11.1 nM, 33.1 nM and 90 nM for 3.5 min. The dissociation was monitored for 15 min. Where possible, kinetic signatures were evaluated according to a Langmuir fit.

[2] = biological target: T3, human HER2 Extracellular Domain (ECD) (human, UniProt P04626 23-652); assay: SPR Biacore T100, antibody captured, 25 C
T3 construct: human recombinant, 69.6 kDa; also called Her2 ECD; HER2_ECD
Method: as §1, §2, §3

[3] = biological target: T4, human Heregulin fragment (HRG) (human); assay: SPR Biacore T100, antibody captured, 25 C
T4 construct: 44 kDa homodimeric protein, expressed in FreeStyle 293-F cells; also called Heregulin beta; HRG1β
T4 chain: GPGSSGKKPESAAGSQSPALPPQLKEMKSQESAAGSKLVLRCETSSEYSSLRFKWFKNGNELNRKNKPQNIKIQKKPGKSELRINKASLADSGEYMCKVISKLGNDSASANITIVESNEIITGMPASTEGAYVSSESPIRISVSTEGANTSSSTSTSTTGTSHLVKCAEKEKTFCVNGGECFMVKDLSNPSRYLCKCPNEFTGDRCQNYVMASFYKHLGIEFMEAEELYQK
Method: as §1, §2, §3

HER4 ECD-HRG complex [4] = biological target: T5, HER4 ECD-HRG complex (human, UniProt Q15303 26-651); assay: SPR Biacore T100, antibody captured, 25 C
T5 construct: HER4 ECD preincubated with a 5-fold molar excess of Heregulin
T5 sequence 1: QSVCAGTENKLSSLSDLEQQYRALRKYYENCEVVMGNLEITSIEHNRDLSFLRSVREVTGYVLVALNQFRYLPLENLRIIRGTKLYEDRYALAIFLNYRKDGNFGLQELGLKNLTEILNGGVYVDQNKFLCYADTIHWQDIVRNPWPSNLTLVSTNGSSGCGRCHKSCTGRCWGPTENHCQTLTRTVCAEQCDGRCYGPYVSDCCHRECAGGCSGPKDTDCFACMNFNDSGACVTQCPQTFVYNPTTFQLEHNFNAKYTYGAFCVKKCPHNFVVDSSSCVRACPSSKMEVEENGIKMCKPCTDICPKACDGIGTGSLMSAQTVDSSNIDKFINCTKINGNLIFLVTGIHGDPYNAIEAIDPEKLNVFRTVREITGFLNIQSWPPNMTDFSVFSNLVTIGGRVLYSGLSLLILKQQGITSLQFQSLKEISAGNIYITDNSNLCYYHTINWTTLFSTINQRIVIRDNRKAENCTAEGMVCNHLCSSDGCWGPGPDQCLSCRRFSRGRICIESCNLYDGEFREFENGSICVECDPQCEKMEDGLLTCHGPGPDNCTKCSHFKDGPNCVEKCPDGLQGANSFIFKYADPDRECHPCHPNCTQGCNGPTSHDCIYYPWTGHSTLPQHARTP
T5 sequence 2: T4 chain
Method: as §1, §2, §3

TgSlyDΔIF = biological target: T6, TgSlyDΔIF; assay: ELISA, coated antigen 0.5 µg/ml, hybridoma supernatant
T6 construct: scaffold without hairpin insert, negative control
T6 chain: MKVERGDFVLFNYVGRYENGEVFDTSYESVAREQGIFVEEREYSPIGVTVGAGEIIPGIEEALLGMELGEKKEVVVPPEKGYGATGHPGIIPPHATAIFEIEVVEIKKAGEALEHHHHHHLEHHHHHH
Method: For the ELISA the screening an antigen down format was used. […] Hybridoma Supernatant was added to the plates and incubated for 1 h at room temperature. Bound antibody was detected with a HRP-labeled F(ab′)₂ goat anti-mouse Fcγ (Dianova) and ABTS (Roche) was used as a HRP-substrate.

HER4 ECD-HRG complex [5] = biological target: T5, HER4 ECD-HRG complex; assay: SPR Biacore T100; reference: HER4-ECD without Heregulin
[6] = biological target: T7, human HER1 (full length, on cells) (human, UniProt P00533 25-1210); assay: IHC (Ventana Benchmark XT) on formalin-fixed, paraffin-embedded HEK293 cells transiently transfected with full length HER1
T7 construct: HEK293 cells transfected with full length HER1, fixed and embedded (IHC); also called EGFR
Method: All selected clones were tested for reactivity and specificity in IHC. […] After an additional fixation in formalin overnight the Agarose blocks were embedded in paraffin. Untransfected HEK293 cells were used as negative controls and treated accordingly to the transfected cells. After paraffin embedding 3 μm thin sections were prepared using a microtome. The sections were mounted on glass microscopy slides and dried for 2 h. All further steps of the immunohistochemical staining procedure were carried out using a Ventana Benchmark XT. The slides were dewaxed and antigen retrieval was performed by applying heat for 1 hour. For antigen retrieval the Ventana buffer CC1 was used. The antibodies were used at a concentration of 1 μg/ml. For the detection of bound antibody the Ventana UltraView detection kit was used.

Kd (TtSlyD-FKBP-Her3): 27 nM
BL (Binding Late) [1]: 70 RU
Kd [1]: 2.2 nM and 2 nM
MR (Molar Ratio) [1]: 0.2
koff [1]: 2.8e-05 s⁻¹
kon [1]: 13000 M⁻¹ s⁻¹
binding result [2]: no binding (tested: up to 90 nM)
binding result [3]: no binding (tested: up to 90 nM)
BL (Binding Late) (HER4 ECD-HRG complex [4]): 349 RU
Kd (HER4 ECD-HRG complex [4]): 5.2 nM and 5 nM
MR (Molar Ratio) (HER4 ECD-HRG complex [4]): 0.6
koff (HER4 ECD-HRG complex [4]): 0.00083 s⁻¹
kon (HER4 ECD-HRG complex [4]): 160000 M⁻¹ s⁻¹
binding result (TgSlyDΔIF): no binding
ratio MR (+Heregulin)/MR (-Heregulin) (HER4 ECD-HRG complex [5]): 6 fold
ratio ka (Her4-ECD-HRG)/ka (Her4-ECD) (HER4 ECD-HRG complex [5]): 23.9 fold
binding result [6]: no binding (tested: 1 µg/ml)
B1: anti-HER3/HER4 antibody M-05-74 (antibody, V domains shown)
VH: QVQLQQSGAELAKPGASVKMSCKTSGYTLTDYWIHWVKQRPGQGLEWIGYINPYTGYTESNQKFKDKATLTADKSSNTAYIQLSSLTSEDSAVYYCARPYYYGDYWGQGTTLTVSS
VL: QIVLTQSPAIMSASPGERVTITCSASSSVSYMHWFQQKPGTSPKLLIYSTSNLASGVPARFSGSGSGTSYSLTISRMEAEDAATYYCQQRSSYPFTFGSGTKLEIK
notes: murine monoclonal IgG from hybridoma (supernatant or purified), bivalent; also called M-074; M-5-74
